From patent publication US20240228627A1, “GALECTIN-1-SPECIFIC MONOVALENT ANTIBODIES AND USES THEREOF” (INSTITUT NATIONAL DE LA RECHERCHE SCIENTIFIQUE, priority 2021, published 2024)

T1: mouse galectin-7 (mouse, UniProt O54974 1-136, limits assumed)
T1 construct: also called mouse GAL-7
T1 sequence (looked up): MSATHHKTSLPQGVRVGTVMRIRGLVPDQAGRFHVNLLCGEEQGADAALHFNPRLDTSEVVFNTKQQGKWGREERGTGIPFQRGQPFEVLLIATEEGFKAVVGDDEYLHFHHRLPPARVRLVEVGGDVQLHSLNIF

T2: human galectin-2 (human, UniProt P05162 1-132)
T2 construct: Recombinant, made in E. coli; also called Gal-2
T2 sequence: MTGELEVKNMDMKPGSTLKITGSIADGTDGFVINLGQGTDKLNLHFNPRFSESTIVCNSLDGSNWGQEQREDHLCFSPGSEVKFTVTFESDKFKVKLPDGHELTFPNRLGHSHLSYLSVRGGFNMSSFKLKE

T3: human galectin-13 (human, UniProt Q9UHV8 1-139)
T3 construct: Recombinant, made in E. coli; also called human GAL-13; Gal-13
T3 sequence: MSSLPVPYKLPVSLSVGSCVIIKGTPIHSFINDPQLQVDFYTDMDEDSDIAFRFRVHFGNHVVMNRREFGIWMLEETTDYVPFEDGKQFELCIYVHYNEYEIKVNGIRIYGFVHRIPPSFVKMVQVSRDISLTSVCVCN

B1: G1N1 nanobody (galectin-1-specific VHH, clone D06) (VHH)
VHH: EVQLQASGGGFVQPGGSLRLSCAASGSTFSEDAMGWFRQAPGKEREFVSAISGFANPHSYYADSVKGRFTISRDNSKNTVYLQMNSLRAEDTATYYCAASHKKTRAPAATFETYWGQGTQVTVSS
notes: From a synthetic humanized nanobody library (hsd2Ab); For apoptosis, MST and ELISA it was made in E. coli from pHEN2 with 6xHis and cMyc tags; also called GAL-1-specific Nb #1; lead VHH clone G1N1; not shown: 6xHis and cMyc tags from vector pHEN2
B2: G1N2: galectin-1-specific single-domain VHH nanobody, SEQ ID NO:9; weak-binding second clone from phage display (protein)
VHH: MAEVQLQASGGGFVQPGGSLRLSCAASGSTYFHTAMGWFRQAPGKEREFVSAISGFANPHRYYASSVKGRFTISRDNSKNTVYLQMNSLRAEDTATYYCANLISTNRGWLMGYWCQGTQVTVSS
modifications: G1N2 VHH

What was measured:
mouse galectin-7 = molecular target: T1, mouse galectin-7; experiment: microscale thermophoresis, Red-NHS labeled G1N1 (2 nM)
Procedure: (§1) FIG. 9A: Red-NHS labeled human GAL-1 (5 nM) incubated with G1N1 or alpha-lactose (a-lactose). […] In the same experiment, no binding was detected at 10 μM for human GAL-7, mouse GAL-7, human GAL-8 and human GAL-13. All experiments were performed in 20 mM Tris-HCl 150 mM NaCl and 0.1% F127. Binding affinities (Kd values) were determined from the fitted curves (three parameter dose-response curve) obtained from data of at least 3 independent experiments. For each value, 95% confidence intervals (Cl) are indicated.

human galectin-7 = molecular target: T4, human galectin-7 (human, UniProt P47929 1-136); experiment: ELISA, human galectin-7 immobilized at 1 µM, anti-His-tag detection [left panel (1 µM]
T4 construct: Recombinant, made in E. coli; also called human GAL-7; Gal-7
Procedure: (§2) Briefly, human galectins were immobilized at 1 and 5 μM for 16 h at 4° C. After a blocking step with PBS containing 10% (v/v) BSA (blocking buffer), increasing concentrations of G1N1 were added to each well and incubated for 1 h at room T° C. […] The colorimetric assay was carried out with 3,3′,5,5′-tetramethylbenzidine (Sigma-Aldrich, ON, Canada) according to the manufacturers recommendations.
(§3) ELISA assays. Recombinant human galectins were immobilized in 96-well plates at the indicated concentrations for 16 h at 4° C. After a blocking step with PBS containing 10% (v/v) bovine serum albumin (BSA) (blocking buffer), increasing concentrations of G1N1 were added to each well and incubated for 1 h at room temperature. […] The colorimetric assay was carried out with TMB (Sigma-Aldrich, MO, USA) according to the manufacturer's recommendations.

[1] = molecular target: T5, recombinant human galectin-1 (human, UniProt P09382 2-135); experiment: microscale thermophoresis (MST), Red-NHS labeled human GAL-1 (5 nM) with G1N1 or alpha-lactose
T5 construct: Recombinant, made in E. coli BL21(DE3) from pET-22b(+); also called hGAL-1; GAL-1
Procedure: as §1

human galectin-2 = molecular target: T2, human galectin-2; experiment: ELISA, human galectin-2 immobilized at 1 µM, anti-His-tag detection [left panel (1 µM]
Procedure: as §2, §3

human galectin-13 = molecular target: T3, human galectin-13; experiment: ELISA, human galectin-13 immobilized at 1 µM, anti-His-tag detection [left panel (1 µM]
Procedure: as §2, §3

[2] = molecular target: T5, recombinant human galectin-1; experiment: microscale thermophoresis, Red-NHS labeled G1N1 (2 nM), human galectin-1 titrated; value in brackets is the 95% CI
Procedure: as §1, with “FIG.” for “FIG. 9A: Red-NHS labeled human GAL-1 (5 nM) incubated with G1N1 or alpha-lactose (a-lactose).”

[3] = molecular target: T6, recombinant mouse galectin-1 (mouse, UniProt P16045 2-135); experiment: microscale thermophoresis, Red-NHS labeled G1N1 (2 nM), mouse galectin-1 titrated; value in brackets is the 95% CI
T6 construct: also called mGAL-1

[4] = molecular target: T5, recombinant human galectin-1; experiment: microscale thermophoresis, Red-NHS labeled human GAL-1 (5 nM), G1N1 titrated; value in brackets is the 95% CI
Procedure: as §1

[5] = molecular target: T7, GAL-1-Biotin (biotinylated human GAL-1) (Homo sapiens, UniProt P09382); experiment: non-adsorbed phage ELISA of VHH clones on GAL-1-Biotin; assay type: binding; details: HRP-conjugated anti-M13 antibody, TMB substrate; 282 clones tested
T7 construct: made in house; host or cells: E. coli BL21 (DE3), pET-22b(+)
Procedure: Generation and production of single chain camelid antibodies. Galectin-specific single chain (VHH) camelid antibodies were obtained following in vitro screening of a non-immune humanized synthetic single domain antibodies (hsd2Ab) library that contains more than 3×10^9 clones expressed at the surface of M13 phage [Moutel et al., 2016]. The panning was carried out against immobilized recombinant human galectin-1 devoid of carbohydrate in its glycan binding site (GBS). Prior to the phage display selection, galectin-1-biotin and GST-Biotin were bound to streptavidin magnetic beads (Dynabeads® M-280 Streptavidin, Life Technologies) with a 50 nM final concentration of biotinylated protein for the first round and 10 nM final concentration of biotinylated protein for the second and third rounds. […] Following three-rounds of phage display, clones were picked randomly and analyzed by non-adsorbed phage ELISA using HRP-conjugated anti-M13 antibody (GE Healthcare) and a colorimetric substrate (TMB, tetramethylbenzidine, Thermo Fischer).
Following an initial pre-screen round of phage display carried out with GST-biotin to deplete the library from unspecific binders, unbound VHHs were incubated with GAL-1-Biotin beads. […] A total of 282 VHHs were then picked and analyzed by ELISA for galectin-1 binders.

[6] = molecular target: T8, recombinant human GAL-1 (rhGAL-1) (Homo sapiens, UniProt P09382); experiment: inhibition of galectin-1-induced apoptosis of Jurkat T cells (annexin V/propidium iodide flow cytometry); assay type: cell-based; details: rhGAL-1 2.25 μM, 4 h at 37° C., increasing concentrations of nanobody
T8 construct: made in house; host or cells: E. coli BL21 (DE3), pET-22b(+)
Procedure: Briefly, Jurkat T cells were incubated with recombinant human GAL-1 (rhGAL-1; 2.25 μM) for 4h at 37° C. in presence of increasing concentrations of G1N1 and G1N2. Apoptosis was measured by flow cytometry using conventional annexin V/propidium iodide staining. Results represent data recorded on 5000 cells. Errors bars represent standard deviation.
Jurkat T cells were incubated with increasing concentrations of G1N1 pre-incubated with rhGAL-1 (2.25 μM) for 4 h at 37° C., after which apoptosis was measured by flow cytometry using Annexin V/propidium iodide staining. 5000 events were recorded. Errors bars represent standard deviation.
Apoptosis of human T cells. In vitro apoptosis assays were carried out using the standard in vitro human Jurkat T cell model system, fluorescein isothiocyanate (FITC)-labeled annexin V (Biolegend, San Diego, CA, USA) and propidium iodide (PI). Briefly, recombinant galectin-1 was pre-incubated for 1 h at 4° C. in serum free RPMI 1640 medium before addition to Jurkat cells. The mixture was incubated at 37° C. for 4 h. Cells were then washed once in PBS and once in binding buffer (0.01 M HEPES, 0.14 M NaCl, 2.5 mM CaCl2, pH 7.4). For staining, cells were incubated for 15 min with FITC-labeled annexin V in the dark at room temperature. The PI (0.25 μg/mL) stain was added to cells just before analysis by flow cytometry.

T5 sequence (P09382 2-135 limits assumed): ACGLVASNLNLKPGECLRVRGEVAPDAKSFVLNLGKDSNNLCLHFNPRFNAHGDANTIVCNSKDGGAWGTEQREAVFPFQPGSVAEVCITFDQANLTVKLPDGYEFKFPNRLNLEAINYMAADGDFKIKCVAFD
T7 sequence (P09382 whole entry): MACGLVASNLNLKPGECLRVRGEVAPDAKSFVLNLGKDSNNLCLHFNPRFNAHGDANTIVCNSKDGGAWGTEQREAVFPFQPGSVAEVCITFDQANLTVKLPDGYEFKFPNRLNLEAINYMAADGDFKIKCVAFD
T8 sequence (P09382 whole entry): as above
T4 sequence (P47929 whole entry): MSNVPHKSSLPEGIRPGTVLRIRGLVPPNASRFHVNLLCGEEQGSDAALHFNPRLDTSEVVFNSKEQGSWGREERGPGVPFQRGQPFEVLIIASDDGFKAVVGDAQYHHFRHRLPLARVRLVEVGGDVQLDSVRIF
T6 sequence (P16045 2-135 limits assumed): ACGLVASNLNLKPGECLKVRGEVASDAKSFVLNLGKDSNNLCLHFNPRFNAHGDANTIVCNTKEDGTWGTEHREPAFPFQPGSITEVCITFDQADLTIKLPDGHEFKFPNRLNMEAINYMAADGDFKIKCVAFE

Molecule | binding result (mouse galectin-7) | binding result (human galectin-7) | fold higher affinity than lactose for galectin-1 [1] | binding result (human galectin-2) | binding result (human galectin-13) | Kd [2] | Kd [3] | Kd [4] | binding in phage ELISA in the presence of GAL-1-Biotin [5] | inhibition of galectin-1-induced apoptosis of Jurkat T cells [6]
B1 | no binding (tested: 10 µM) | no binding (tested: 10 µM) | ~200 fold | no binding (tested: 10 µM) | no binding (tested: 10 µM) | 750 nM | 24.6 nM | 87 nM | – | –
B2 | – | – | – | – | – | – | – | – | weak binding | not
